Measured values taken from PMC4494898.

Molecular target: Egr-1 (Zif268) zinc-finger protein (UniProt P18146 335-423)
Experiment: fluorescence anisotropy

B1: 12-bp competitor duplex (dsDNA)
DNA 1: TATGTAGGCGGT
DNA 2: ACCGCCTACATA
B1 gave a Kd of 29 nM.
